Earlier results as cited in paper PMC6994236.

Columns and labels:
[1] = target: PSD-95 PDZ1-3 (Rattus norvegicus) (UniProt P31016); test: surface plasmon resonance
[2] = target: PSD-95 PDZ3 (Rattus norvegicus) (UniProt P31016); test: surface plasmon resonance
PSD-95 PDZ3 (Rattus norvegicus), sequence (P31016 310-396): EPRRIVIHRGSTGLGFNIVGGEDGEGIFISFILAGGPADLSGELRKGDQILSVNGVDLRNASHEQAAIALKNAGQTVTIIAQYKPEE

PSD-95 PDZ1-3 (Rattus norvegicus), sequence (P31016 61-393): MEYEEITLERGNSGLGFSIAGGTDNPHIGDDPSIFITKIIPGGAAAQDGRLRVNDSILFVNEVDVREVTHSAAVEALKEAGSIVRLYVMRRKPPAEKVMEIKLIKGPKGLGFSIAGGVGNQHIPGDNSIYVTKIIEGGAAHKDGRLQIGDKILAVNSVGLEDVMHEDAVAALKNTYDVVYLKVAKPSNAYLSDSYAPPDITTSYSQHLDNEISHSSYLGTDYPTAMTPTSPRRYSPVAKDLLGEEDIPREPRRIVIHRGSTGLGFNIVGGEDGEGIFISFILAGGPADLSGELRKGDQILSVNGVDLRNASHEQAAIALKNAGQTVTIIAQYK

- Kd [1]: 5 nM
- Kd [2]: 650 nM
Substance: synGAP lacking first 100 residues (from UniProt Q9QUH6)
